{
  "source": "paper PMC9040739",
  "about": "“Entamoeba histolytica EHD1 Is Involved in Mitosome-Endosome Contact” (mBio, 2022)",
  "proteins": {"B1": {"name": "His-EHD1 (Entamoeba histolytica HM-1:IMSS) (protein)", "chain": "MFGKKKQKPQMDTSYVSVIDGVKKIYDEKIKKLEADYKYDYLVSPLMRQADFEAKPMVLFLGQYSTGKTTFINYLLNYDYPGSHIGPEPTTDGFMAIMHGPNSTNIPGNTLCVQSDKPFTSLSKFGNEFMAKFNGSFCNLPLLEHLTFIDSPGVLSGEKQRIGRSYDFNEVVRWFAERADMIVLVFDAHKLDISDEFKGVIEAVKKHSEKMRLVLNKADSIDSQQLMRVYGALMWSLGKVMQTPECLRVYVSSFWDQPFKESLFTGLFEKERDDLMYDLHALPKQATVRKVNELCKRARLAKANAYITSYLREQMPTFGKDKKKAELLKDLNTVFNTVMKRYNLAAGDFPPIDVYKDRLQNCDFSKFPKLDMRVINAVDDALGTQIPLLLKKFPMEDDLSTHTNPFEVASNFEKCCITLDVSEDEMNSYQKEFDKLPKNEVGKVLGKDCFAPLMASGADKKDLQKIWSIADSGKEGALNAHQYILAKALVRTLLQSGGYPDNLPPVE", "notes": "full length (ORF primers start to stop), N-terminal His tag (pColdI), tag kept; E. coli BL21, Ni-NTA; native mass 58 kDa"}},
  "substrate": "Nc1ncnc2c1ncn2[C@@H]1O[C@H](COP(=O)(O)OP(=O)(O)OP(=O)(O)O)[C@@H](O)[C@H]1O",
  "experiment": "coupled fluorescent ADP assay (ADP-hexokinase/G6PDH/diaphorase/resazurin)",
  "assay_type": "biochemical, Entamoeba histolytica",
  "conditions": "MgCl2, pH 7.5, 37°C, 12.5-2,500 μM ATP",
  "data": [
    {"protein": "B1", "values": [
      {"measurement": "Km", "result": "94.91 ± 16.63", "unit": "µM"}
    ]}
  ]
}
